In experiment [1] the target is T1, ADI-22523 Fab.
T1 construct: anti-CD3 Fab by papain digestion of the IgG
Briefly: BLI; tip anti-ID IgG, solution ADI-22523 Fab. The method, boiled down: (§1)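 Sensors carrying captured anti-ID IgG were equilibrated 30 min in assay buffer before a 60 s baseline. Equilibrium KD was taken as koff/kon from a 1:1 model.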

Experiment [2] concerns the target T2, ADI-26924.
T2 construct: anti-CD3 antibody made in CHO cells, captured by anti-human Fc
Briefly: SPR Carterra avidity, yeast anti-ID. An outline of the steps:
(§2)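 Goat anti-human Fc was amine-coupled to an HC30M sensor chip, then anti-CD3 antibodies at 100 nM were flowed over discrete spots for 5 min. Anti-idiotype antibodies were run in non-regenerative kinetic cycles at 25° C in HBSTE, with 300s dissociation. Blank-subtracted sensorgrams were fitted 1:1.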

The next experiment addresses T3, ADI-76357.
T3 construct: anti-CD3 antibody made in CHO cells, captured by anti-human Fc
Briefly: SPR Carterra avidity, yeast anti-ID. An outline of the steps: as §2

Experiment [3] addresses T4, ADI-26943.
T4 construct: anti-CD3 antibody made in CHO cells, captured by anti-human Fc
In words: SPR Carterra avidity, yeast anti-ID. An outline of the steps: as §2

Experiment [4] addresses T5, ADI-26920 IgG.
T5 construct: anti-CD3 IgG
Briefly: SPR Carterra avidity, yeast anti-ID. An outline of the steps: as §2

Experiment [5] addresses T6, ADI-26913 IgG.
T6 construct: anti-CD3 IgG
Briefly: SPR Carterra avidity, yeast anti-ID. An outline of the steps:
as §2

The target of experiment [6] is T7, ADI-26919.
T7 construct: anti-CD3 antibody made in CHO cells, captured by anti-human Fc
T7 sequence (VH, as listed by the source limits assumed, chain 1 of 2): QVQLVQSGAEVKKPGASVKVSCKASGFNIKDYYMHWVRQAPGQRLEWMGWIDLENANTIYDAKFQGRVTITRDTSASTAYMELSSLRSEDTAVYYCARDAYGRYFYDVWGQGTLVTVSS
T7 sequence (VL, as listed by the source limits assumed, chain 2 of 2): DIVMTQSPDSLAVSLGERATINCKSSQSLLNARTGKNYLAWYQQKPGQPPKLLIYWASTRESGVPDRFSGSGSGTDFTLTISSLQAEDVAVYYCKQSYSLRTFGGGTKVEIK
Briefly: SPR Carterra avidity, yeast anti-ID. The method, boiled down:
as §2

The target of a further experiment is T8, ADI-26906 IgG.
T8 construct: anti-CD3 IgG
T8 sequence (VL, as listed by the source limits assumed, chain 2 of 2): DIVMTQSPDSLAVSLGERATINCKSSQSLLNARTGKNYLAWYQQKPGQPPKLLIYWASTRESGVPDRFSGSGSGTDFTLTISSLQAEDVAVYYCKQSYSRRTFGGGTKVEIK
Briefly: SPR Carterra avidity, CHO anti-ID, *koff limit. Here is the method:
(§3) Kinetic analysis was conducted at 25° C. in an HBSTE running buffer system (Carterra Cat #3630) using a Carterra LSA (Carterra USA, Salt Lake City, UT). The sample compartment was maintained at 20° C. for the duration of each experiment.
(§4) For antibody capture experiments, a goat anti-human Fc antibody (Jackson ImmunoResearch) was covalently coupled to an HC30M sensor chip surface via standard amine coupling (1:1 EDC:NHS) and then blocked with ethanolamine (1.0 M, pH 8.5). Covalent coupling steps were performed in 25 mM MES buffer (Carterra, Cat #3625) plus 0.05% Tween20. The anti-CD3 antibodies (100 nM in running buffer) were flowed over discrete regions of interest on the chip surface for 5 minutes. […] Dissociation of the anti-idiotype antibodies was monitored for 300s. Several blank buffer samples were injected over the entire chip surface at the start of each non-regenerative kinetic cycle. The preceding blank buffer injection was used for blank surface subtraction. At the end of each non-regenerative kinetic cycle, all surfaces were regenerated via two 30s injections of 10 mM glycine, pH 1.7.
(§5) For data processing and fitting, sensorgrams were double reference subtracted with a baseline drift correction of 4 RU. Sensorgrams were y-aligned and baseline corrected, filtered and cropped to include only the association and dissociation steps. Data was fitted to a 1:1 binding model using Carterra Kinetics Data Analysis software version 1.7.1.3055.

The target of experiment [7] is T6, ADI-26913 IgG. In words: SPR Carterra avidity, CHO anti-ID, *koff limit. On the procedure:
as §3, §4, §5

For the next experiment, the target named is T9, ADI-22523 IgG.
T9 construct: anti-CD3 IgG
T9 sequence (VH, as listed by the source limits assumed, chain 1 of 2): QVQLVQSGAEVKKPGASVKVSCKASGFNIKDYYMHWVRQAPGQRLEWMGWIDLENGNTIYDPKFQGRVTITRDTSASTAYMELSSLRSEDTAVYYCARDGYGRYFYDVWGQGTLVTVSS
T9 sequence (VL, as listed by the source limits assumed, chain 2 of 2): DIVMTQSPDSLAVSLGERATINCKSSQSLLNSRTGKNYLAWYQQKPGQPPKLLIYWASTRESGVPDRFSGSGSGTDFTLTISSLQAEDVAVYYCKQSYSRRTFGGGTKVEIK
In words: BLI; tip anti-ID IgG, solution ADI-22523 IgG. The method, boiled down:
as §1

The next experiment has as its target T10, ADI-26916 IgG.
T10 construct: anti-CD3 IgG
In words: SPR Carterra avidity, CHO anti-ID. Here is the method: as §3, §4
(§6) In Tables 10A-10C, anti-CD3 antibodies are listed by ADI number or CTL number in the first column. […] CTL-62223 is mosunetuzumab, CTL-62227 is odronextamab, CTL-62228 is glofitamab, and CTL-62240 is ONO-4685. […] “W.B.” means weak binding under the conditions of this assay and thus a KD was unable to be assigned. “N.B.” means no binding under the conditions of this assay.

The target of the next experiment is T11, ADI-74968.
T11 construct: pH-dependent anti-CD3 antibody made in CHO cells
T11 sequence (VH, as listed by the source, chain 1 of 2): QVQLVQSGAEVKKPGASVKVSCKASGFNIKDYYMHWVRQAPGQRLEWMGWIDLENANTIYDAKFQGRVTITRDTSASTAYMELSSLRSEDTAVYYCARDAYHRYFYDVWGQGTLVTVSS
T11 sequence (VL, as listed by the source, chain 2 of 2): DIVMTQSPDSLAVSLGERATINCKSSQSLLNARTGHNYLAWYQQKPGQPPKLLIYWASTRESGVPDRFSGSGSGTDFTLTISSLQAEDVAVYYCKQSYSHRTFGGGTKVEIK
Briefly: SPR Carterra avidity, CHO anti-ID. On the procedure: as §3, §4, §6

For the next experiment, the target named is T12, ADI-76359.
T12 construct: anti-CD3 antibody made in CHO cells, captured by anti-human Fc
T12 sequence (VH, as listed by the source, chain 1 of 2): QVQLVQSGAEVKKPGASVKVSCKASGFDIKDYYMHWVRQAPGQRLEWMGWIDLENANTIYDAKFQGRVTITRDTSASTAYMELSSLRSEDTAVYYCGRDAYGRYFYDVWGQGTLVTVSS
Briefly: SPR Carterra avidity, CHO anti-ID. Here is the method:
as §3, §4, §6

Experiment [8] deals with T2, ADI-26924. In words: SPR Carterra avidity, CHO anti-ID, *koff limit. On the procedure:
as §3, §4, §5

The target of experiment [9] is T4, ADI-26943. Briefly: SPR Carterra avidity, CHO anti-ID, *koff limit. On the procedure:
as §3, §4, §5

The next experiment has as its target T13, ADI-50024.
T13 construct: anti-CD3 antibody made in CHO cells, captured by anti-human Fc
In words: SPR Carterra avidity, CHO anti-ID, *koff limit. On the procedure:
as §3, §4, §5

In experiment [10] the target is T5, ADI-26920 IgG. In words: SPR Carterra avidity, CHO anti-ID, *koff limit. On the procedure: as §3, §4, §5
T5 sequence (VH, as listed by the source limits assumed, chain 1 of 2): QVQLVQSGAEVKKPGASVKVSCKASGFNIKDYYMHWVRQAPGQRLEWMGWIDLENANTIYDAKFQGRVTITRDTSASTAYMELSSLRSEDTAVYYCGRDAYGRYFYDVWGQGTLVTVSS
The next experiment concerns the target T14, CTL-62223.
T14 construct: also called mosunetuzumab
In words: SPR Carterra avidity, CHO anti-ID, *koff limit. On the procedure: as §3, §4, §5

For experiment [11], the target named is T7, ADI-26919. In words: SPR Carterra avidity, CHO anti-ID, *koff limit. On the procedure: as §3, §4, §5
Another experiment deals with T15, ADI-26928 Fab.
T15 construct: anti-CD3 Fab by papain digestion of the IgG
T15 sequence (VH, as listed by the source limits assumed, chain 1 of 2): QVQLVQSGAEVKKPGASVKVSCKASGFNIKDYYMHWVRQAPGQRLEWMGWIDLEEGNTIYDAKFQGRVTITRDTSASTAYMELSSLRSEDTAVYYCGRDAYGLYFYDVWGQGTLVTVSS
Briefly: BLI; tip ADI-34134 IgG, solution anti-CD3 Fab. On the procedure:
(§7) ForteBio affinity measurements were performed generally as previously described (Estep et al., MAbs. 2013 5(2):270-8). Briefly, ForteBio affinity measurements were performed by loading antibody IgG or Fabs on-line onto AHC sensors. Sensors were equilibrated off-line in assay buffer for 30 minutes and then monitored on-line for 60 seconds for baseline establishment. For avid binding measurement, sensors with loaded antibodies were exposed to IgG or Fab solutions for 3 minutes, afterwards they were transferred to assay buffer for 3 minutes for off-rate measurement. Kinetics data were fit using a 1:1 binding model in the data analysis software provided by ForteBio to obtain equilibrium dissociation constant (KD=koff/kₒₙ) values. In each column, tip-immobilized antibodies are listed first and solution antibodies second.
(§8) In each column, tip-immobilized antibodies are listed first and solution antibodies second.

In another experiment the target is T16, ADI-26954 Fab.
T16 construct: anti-CD3 Fab by papain digestion of the IgG
T16 sequence (VH, as listed by the source limits assumed, chain 1 of 2): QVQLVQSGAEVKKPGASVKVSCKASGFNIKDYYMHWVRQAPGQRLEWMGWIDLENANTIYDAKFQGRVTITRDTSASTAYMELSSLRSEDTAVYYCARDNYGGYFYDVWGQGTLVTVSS
T16 sequence (VL, as listed by the source limits assumed, chain 2 of 2): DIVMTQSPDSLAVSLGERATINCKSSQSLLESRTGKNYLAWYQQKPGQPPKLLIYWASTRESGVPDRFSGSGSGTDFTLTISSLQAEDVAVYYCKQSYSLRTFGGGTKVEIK
In words: BLI; tip ADI-34134 IgG, solution anti-CD3 Fab. Here is the method: as §7, §8

In the next experiment the target is T17, ADI-26916 Fab.
T17 construct: anti-CD3 Fab by papain digestion of the IgG
T17 sequence (VH, as listed by the source, chain 1 of 2): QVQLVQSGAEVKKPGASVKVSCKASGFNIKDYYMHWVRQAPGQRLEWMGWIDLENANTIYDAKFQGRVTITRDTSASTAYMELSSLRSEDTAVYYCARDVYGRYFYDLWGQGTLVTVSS
Briefly: BLI; tip ADI-34134 IgG, solution anti-CD3 Fab. Here is the method:
as §7, §8

Another experiment has as its target T18, ADI-26913 Fab.
T18 construct: anti-CD3 Fab by papain digestion of the IgG
Briefly: BLI; tip ADI-34134 IgG, solution anti-CD3 Fab. On the procedure: as §7, §8

The target in a further experiment is T19, ADI-26906 Fab.
T19 construct: anti-CD3 Fab by papain digestion of the IgG
In words: BLI; tip ADI-34134 IgG, solution anti-CD3 Fab. Here is the method: as §7, §8

The target of a further experiment is T20, ADI-26921 Fab.
T20 construct: anti-CD3 Fab by papain digestion of the IgG
T20 sequence (VH, as listed by the source limits assumed, chain 1 of 2): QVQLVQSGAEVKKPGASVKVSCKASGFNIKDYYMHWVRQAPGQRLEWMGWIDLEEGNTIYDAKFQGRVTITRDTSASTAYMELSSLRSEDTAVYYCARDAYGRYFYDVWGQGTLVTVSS
Briefly: BLI; tip ADI-34134 IgG, solution anti-CD3 Fab. On the procedure: as §7, §8

Another experiment deals with T21, ADI-26927 Fab.
T21 construct: anti-CD3 Fab by papain digestion of the IgG
T21 sequence (VH, as listed by the source limits assumed, chain 1 of 2): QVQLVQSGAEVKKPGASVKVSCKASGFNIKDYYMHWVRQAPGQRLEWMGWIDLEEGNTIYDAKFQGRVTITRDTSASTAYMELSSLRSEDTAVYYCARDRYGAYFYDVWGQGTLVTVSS
Briefly: BLI; tip ADI-34134 IgG, solution anti-CD3 Fab. Here is the method:
as §7, §8

For experiment [12], the target named is T1, ADI-22523 Fab. Briefly: BLI; tip ADI-34134 IgG, solution anti-CD3 Fab. Here is the method: as §7, §8
Another experiment has as its target T22, ADI-26941 Fab.
T22 construct: anti-CD3 Fab by papain digestion of the IgG
In words: BLI; tip ADI-34134 IgG, solution anti-CD3 Fab. Here is the method: as §7, §8

T6 sequence (VH, as listed by the source limits assumed, chain 1 of 2): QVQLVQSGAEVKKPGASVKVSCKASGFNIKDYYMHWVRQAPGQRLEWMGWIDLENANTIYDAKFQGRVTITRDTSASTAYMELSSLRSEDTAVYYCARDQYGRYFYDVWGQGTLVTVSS
T4 sequence (VH, as listed by the source, chain 1 of 2): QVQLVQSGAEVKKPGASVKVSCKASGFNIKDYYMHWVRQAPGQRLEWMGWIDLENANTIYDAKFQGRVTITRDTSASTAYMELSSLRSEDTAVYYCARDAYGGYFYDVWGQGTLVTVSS
T4 sequence (VL, as listed by the source, chain 2 of 2): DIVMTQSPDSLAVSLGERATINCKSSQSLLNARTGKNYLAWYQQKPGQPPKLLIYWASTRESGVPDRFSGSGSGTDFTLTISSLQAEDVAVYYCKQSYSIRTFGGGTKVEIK
T2 sequence (VH, as listed by the source, chain 1 of 2): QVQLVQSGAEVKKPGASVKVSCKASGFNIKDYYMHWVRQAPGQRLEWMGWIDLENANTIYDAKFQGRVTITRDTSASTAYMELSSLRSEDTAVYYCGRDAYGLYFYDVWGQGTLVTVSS
T3 sequence (VH, as listed by the source, chain 1 of 2): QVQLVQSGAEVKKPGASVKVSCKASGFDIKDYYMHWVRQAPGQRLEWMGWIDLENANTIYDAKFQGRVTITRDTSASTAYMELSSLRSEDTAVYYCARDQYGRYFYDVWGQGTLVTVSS
T22 sequence (VH, as listed by the source limits assumed, chain 1 of 2): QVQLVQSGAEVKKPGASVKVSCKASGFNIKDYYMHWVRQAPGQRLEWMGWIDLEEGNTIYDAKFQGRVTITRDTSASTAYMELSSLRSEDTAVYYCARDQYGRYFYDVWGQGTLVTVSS
T14 sequence (VH, as listed by the source, chain 1 of 2): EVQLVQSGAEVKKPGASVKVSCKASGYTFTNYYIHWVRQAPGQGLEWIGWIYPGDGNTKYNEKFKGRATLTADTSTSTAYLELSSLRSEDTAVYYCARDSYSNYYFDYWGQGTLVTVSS
T14 sequence (VL, as listed by the source, chain 2 of 2): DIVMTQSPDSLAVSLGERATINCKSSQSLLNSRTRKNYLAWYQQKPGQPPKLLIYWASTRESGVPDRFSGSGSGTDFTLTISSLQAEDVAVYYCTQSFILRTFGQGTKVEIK
T13 sequence (VH, as listed by the source limits assumed, chain 1 of 2): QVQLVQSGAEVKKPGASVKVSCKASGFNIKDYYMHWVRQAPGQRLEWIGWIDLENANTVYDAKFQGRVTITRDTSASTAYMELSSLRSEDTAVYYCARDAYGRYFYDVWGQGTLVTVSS
T13 sequence (VL, as listed by the source limits assumed, chain 2 of 2): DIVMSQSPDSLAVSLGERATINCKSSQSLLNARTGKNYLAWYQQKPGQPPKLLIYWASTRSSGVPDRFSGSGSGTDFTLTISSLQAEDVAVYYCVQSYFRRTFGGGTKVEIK

B1: ADI-34145 IgG (antibody, V domains shown)
VH: EVQLLESGGGLVQPGGSLRLSCAASGFTFSSYAMSWVRQAPGKGLEWVSTISGSGGSTYYADSVKGRFTISRDNSKNTLYLQMNSLRAEDTAVYYCARLGGRRGSGSSYYYYYGMDVWGQGTTVTVSS
VL: not shown
notes: anti-ID IgG
With B1, the Kd with ADI-22523 Fab [1] stood at 4.13 nM; with ADI-26924 [2] it was 17 nM; with ADI-76357, 23 nM; with ADI-26943 [3], 9.5 nM; with ADI-26920 IgG [4], 8.6 nM; with ADI-26913 IgG [5], 18 nM. Also, the Kd with ADI-26919 [6] came out at 18 nM; in the experiment with ADI-26906 IgG, 6.4 nM; with ADI-26913 IgG [7], 4.4 nM; in the experiment with ADI-22523 IgG it was 2.72 nM; with ADI-26916 IgG, 17 nM; in the experiment with ADI-74968, 41 nM. This molecule yielded a Kd with ADI-76359 of 8 nM.

B2: ADI-34134 IgG (antibody, V domains shown)
VH: QVQLVQSGAEVKKPGSSVKVSCKASGGTFSSYAISWVRQAPGQGLEWMGGIIPIFGTANYAQKFQGRVTITADESTSTAYMELSSLRSEDTAVYYCARGAPNYYGSGGYDDGWFDPWGQGTLVTVSS
VL: EIVLTQSPGTLSLSPGERATLSCRASQSVSSDYLAWYQQKPGQAPRLLIYGASSRATGIPDRFSGSGSGTDFTLTISRLEPEDFAVYYCQQFGRVPTFGGGTKVEIK
As for B2, the Kd with ADI-22523 Fab [1] came out at 5.62 nM; in the experiment with ADI-26924 [2], 20 nM; with ADI-76357, 9.5 nM; with ADI-26943 [3], 13 nM; with ADI-26920 IgG [4] it was 16 nM; in the experiment with ADI-26913 IgG [5], 21 nM. Also, the Kd with ADI-26919 [6] was 9.1 nM; with ADI-26924 [8], 0.1 nM; in the experiment with ADI-26943 [9], 0.1 nM; in the experiment with ADI-50024, 0.26 nM; with ADI-26906 IgG, 0.18 nM; with ADI-26920 IgG [10], 0.11 nM. Moreover, the Kd stood at 0.19 nM with CTL-62223; 0.11 nM with ADI-26919 [11]; 0.46 nM in the experiment with ADI-22523 IgG; 0.17 nM in the experiment with ADI-26916 IgG; 0.78 nM with ADI-74968; 0.15 nM in the experiment with ADI-76359. Moreover, the Kd in the experiment with ADI-26928 Fab stood at 31 nM; with ADI-26954 Fab it was 157 nM; with ADI-26916 Fab, 56.5 nM; with ADI-26913 Fab, 79.8 nM; with ADI-26906 Fab it was 17.8 nM; in the experiment with ADI-26921 Fab, 185 nM. Also, the Kd was 38.2 nM with ADI-26927 Fab, 5.62 nM in the experiment with ADI-22523 Fab [12] and 138 nM with ADI-26941 Fab.

For the origin of these results see patent publication US20250019439A1 (Adimab, published 2025).
